# No end group written: not given here. *: point of attachment. Biotin = O=C1N[C@H]2[C@H](CS[C@H]2CCCCC(=O)*)N1
# How the values were obtained:
# [1] = target: Aβ1-40 amyloid (amyloid form of the Aβ1-40 peptide); assay: ELISA on immobilized Aβ1-40 amyloid, FIG. 5
# [2] = target: Aβ1-40 amyloid (amyloid form of the Aβ1-40 peptide); assay: ELISA on immobilized Aβ1-40 amyloid, streptavidin-alkaline phosphatase detection
concentration below which no significant binding was seen [1] [µM],Kd [2] [nM],Binder
> 5,–,Biotin-DWGKGGRWRLWPGASGKTEA
–,320,Biotin-AECDWGKGGRWRLWPGASGKTEACGP (also: flanking cysteines can form a disulfide bond)

# Reference: patent US20070093415A1
